Measured values reported in the supplement of paper PMC7125110.
± gives the standard error. Fewer inactive variants are shown than the library holds.

B1: glmS ribozyme (parent)
chain: AUAAAAGCGCCAGAACUACAGAAAUGUAGUUGACGAGGAGGAGGUUUAUCGAAUUUUCGGCGGAUGCCUCCAAA

Variants of: B1
Test: self-cleavage kobs at 2500 uM GlcN6P; higher = faster cleavage; RNA array
Settings: with glucosamine-6-phosphate
Procedure, shortened: (§1)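 Barcoded ribozyme variants on sequenced MiSeq chips were transcribed in situ by E. coli RNA polymerase and followed at 37 °C through a hybridised Cy3 probe. Glucosamine-6-phosphate at 40 μM to 10 mM in HEPES/KCl/Mg(OAc)2 buffer was flowed in, and tiles were imaged over ~14 h. Signals were normalised to baseline and to non-cleaving reference variants, and per-tile medians were fit to one- or two-exponential decays to give kobs. Weighted Michaelis–Menten fits across concentrations gave kcat and KM.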

AUAAAAGCGGCAGAACUACAGAAAUGUAGUUGACGACGAGGAGGUUUAUCGAAUUUUCGGCGGAUGUCUCCAAA [C10G G37C C67U] and AUAAAAGCGGCUCAACUACAGAAAUGUAGUUAACGAGGAGGAGGUUUAUCGAAUUUUCGGCGGAUGCCUCCAAA [C10G A12U G13C G32A] cannot be ordered by “self-cleavage kobs at 2500 uM GlcN6P” value: less than 1e-05 s⁻¹ for the first, less than 1e-05 s⁻¹ for the second.

AUAAAAGCGACUGAACUACAGAAAUGUAGUGGACGAGGAGGAGGUCUAUCGAAUUUUCGGCGGAUGCCUCCAAA [C10A A12U U31G U46C] and AUAAAAGCGACAUAACUACAGAAAUGUAGUUGACGUGGAGGAGGUUUAUCGAAUCUUCGGCGGAUGUCUCCAAA [C10A G13U A36U U55C C67U] cannot be ordered by “self-cleavage kobs at 2500 uM GlcN6P” value: less than 1e-05 s⁻¹ for the first, less than 1e-05 s⁻¹ for the second.

AUAAAAGCGUCAGAACUACAGAAAUGUAGUUGACGAGGAAGAGGUUUAUCGAAUUUUCGGCGGAUGCCUGCAAA [C10U G40A C70G] and AUAAAAGCGACAGAAUUACAGAAAUGUAGUUGACGAGGAGGAGGUUUUUCGAAUUUUCGGCGGAUGCCUCCAAA [C10A C16U A48U] cannot be ordered by “self-cleavage kobs at 2500 uM GlcN6P” value: less than 1e-05 s⁻¹ for the first, less than 1e-05 s⁻¹ for the second.

AUAAAAGCGGCAGAACUACAGAAAUGUAGUUGACGAGGAGGAGGUUUAUCGAAUUUUCGCAGGAUGCCUCCAAA [C10G G60C C61A] and AUAAAAGCGGCACGACUACAGAAAUGUAGUCGACGAGGAGGAGGUUAAUCGAAUUUUCGGCGGAUGCCUCCAAA [C10G G13C A14G U31C U47A] cannot be ordered by “self-cleavage kobs at 2500 uM GlcN6P” value: less than 1e-05 s⁻¹ for the first, less than 1e-05 s⁻¹ for the second.

AUAAAAGCGUCAGGACUACAGAAAUGUAGUUGACGAGGAGGAGUUUUAUCGAAUUUUCGGCGGAUGCCUCCAAA [C10U A14G G44U] and AUAAAAGCGGCAGAACUACAGAAAUGUAGUUGACGAGGAGGAGGUUUAUCGAAUUCUCGGCGGAUGCCUCCAAA [C10G U56C] cannot be ordered by “self-cleavage kobs at 2500 uM GlcN6P” value: less than 1e-05 s⁻¹ for the first, less than 1e-05 s⁻¹ for the second.

Compared with AUAAAAGCGGCAGAACUAAAGAAAUGUAGUUGACGAGGUGGAGGUUUAUCGAAUUUUCGGCGGAUGCCCCCAAA [C10G C19A A39U U69C], AUAAAAGCGUCAGAACUACAGAAAUGUAGUUAACGAGGAGGAGGUUUAUCGAAUUUUCGGCGGAUGCCUUCAAA [C10U G32A C70U] is higher in “self-cleavage kobs at 2500 uM GlcN6P” value: less than 1e-05 s⁻¹ for the first, 6.3e-05 ± 3e-05 s⁻¹ for the second.

Going from AUAAAAGCUCCAGAACUACAGAAAUGUAGUUUACGAGUAGGUGGUUUAUCGAAUUUUCGGCGGAUGCCUCCAAA [G9U G32U G38U A42U] to AUAAAAGCGCAUGAACUACAGAAAUGUAGUUGACGAGGAUGAGGUUUAUCGAAUUUUCGGCGGAUGCCUCCAAA [C11A A12U G40U], the “self-cleavage kobs at 2500 uM GlcN6P” value rises from less than 1e-05 s⁻¹ to 4.18e-05 ± 2.1e-05 s⁻¹.

AUAAAAGCGUCAGAACUACAGAAAUGUAGUAGACGAGGUGGAGGUUUAUCCAAUUUUCGGCGGAUGCCUCCAAA [C10U U31A A39U G51C] and AUAAAAGCGGGAUAACUACAGAAAUGUAGUUGACGAGGAGGAGGUUUAUCGAAUUUUCGGCGGAUGCCCGCAAA [C10G C11G G13U U69C C70G] cannot be ordered by “self-cleavage kobs at 2500 uM GlcN6P” value: less than 1e-05 s⁻¹ for the first, less than 1e-05 s⁻¹ for the second.

AUAAAAGCUCCAGAACUACAGAAAUGUAGUUGACGAGGAGAAGGUUUAUCGAAUUUUCGGCGGAUGUCUCCAAA [G9U G41A C67U] and AUAAAAGCGGCAGAACUACAGAAAUGUAGUUGACGAGGAGGAGGUUUAUCGAAUUUUCGGCGCAUUCCUCCAAA [C10G G63C G66U] cannot be ordered by “self-cleavage kobs at 2500 uM GlcN6P” value: less than 1e-05 s⁻¹ for the first, less than 1e-05 s⁻¹ for the second.

AUAAAAGCGACAGAACUACAGAAAUGUAGUUGACGAGGAUGAGGUUUAUCGAAUUAUCGGCGGACGCCUCCAAA [C10A G40U U56A U65C] and AUAAAAGCUCCAGAACUACAGAAAUGUAGUUGACGAGGAGGAGGUUUAUCGAACUUUCGGCGCAUGCCUCCAAA [G9U U54C G63C] cannot be ordered by “self-cleavage kobs at 2500 uM GlcN6P” value: less than 1e-05 s⁻¹ for the first, less than 1e-05 s⁻¹ for the second.

Going from AUAAAAGCGUCAGAACUACAGAAAUGUAGUUGACGAGGAGGAGGUUUAUCCAAUUUUGGGCGGAUGCCUCCAAA [C10U G51C C58G] to AUAAAAGCGACAGAACUACAGAAAUGUAGUUGACGAGGAGGAGGUUUAUCAAAUUUUCGGCGGAUACAUACAAA [C10A G51A G66A C68A C70A], the “self-cleavage kobs at 2500 uM GlcN6P” value rises from less than 1e-05 s⁻¹ to 7.81e-05 ± 3.1e-05 s⁻¹.

AUAAAAGCGACAGAACUACAGAAAUGUAGUUGACGAGGAGGAGGGUUAUCGAAGUUUCGGCGGAUGCCUCCAAA [C10A U45G U54G] and AUAAAAGCGACAGAACUACAGAAAUGUAGUUGACGAGCAGGAGGUUUAUCGAAUUUUGGGCGGAUGCCUCCAAA [C10A G38C C58G] cannot be ordered by “self-cleavage kobs at 2500 uM GlcN6P” value: less than 1e-05 s⁻¹ for the first, less than 1e-05 s⁻¹ for the second.

Going from AUAAAAGCGACAGAACUACAGAAAUGUAGUUGACGAGGAGGAGGUUUAUCGAAUUUUCGGCGGCUGGCUCCAAA [C10A A64C C67G] to AUAAAAGCGACAGAACUACAGAAAUGUAGUUGAGGAGGAGGAGGUUUAUCGAAUUUUCGGCGGAUGCGUCCAAA [C10A C34G C68G], the “self-cleavage kobs at 2500 uM GlcN6P” value falls from 8.61e-05 ± 3.1e-05 s⁻¹ to less than 1e-05 s⁻¹.

AUAAAAGCGGCAGAACUACAGAAAUGUAGUUGACGAGGAGGAUGUCUAUCGAAUUUUCGGCGGAUGCCUCCAAA [C10G G43U U46C] and AUAAAAGCGUCAGAACUACAGAAAUGUAGUUGACGAGGAGGCGGUUUAUCGAAUUUUCGGCAGAGGCUUCCAAA [C10U A42C G62A U65G C68U] cannot be ordered by “self-cleavage kobs at 2500 uM GlcN6P” value: less than 1e-05 s⁻¹ for the first, less than 1e-05 s⁻¹ for the second.

AUAAAAGCGUCAGAACUACAGAAAUGUAGUUGCCGUGGAGGAGGUUUAUCGAAAUUUCGGCGGAUGCCUCCAAA [C10U A33C A36U U54A] and AUAAAAGCGACUGAACUACAGAAAUGUAGUUGACGAUGAGGAGUUUUAUGGAGUUUUCGGCGGAUGCUUCCAAA [C10A A12U G37U G44U C50G A53G C68U] cannot be ordered by “self-cleavage kobs at 2500 uM GlcN6P” value: less than 1e-05 s⁻¹ for the first, less than 1e-05 s⁻¹ for the second.

Compared with AUAAAAGCGACAGAACUACAGAAAUGUAGCUGACGAGGAGGAGGUUUAUCGAAUCUUCGGCGGAUGCCUCCAAA [C10A U30C U55C], AUAAAAGCGUCAGAACUACAGAAAUAUAGUUGACGAGGAGGAGGUUUAUCGAAUUUUCGGCGGAUGCCUCCAAA [C10U G26A] is higher in “self-cleavage kobs at 2500 uM GlcN6P” value: less than 1e-05 s⁻¹ for the first, 7.4e-05 ± 2.8e-05 s⁻¹ for the second.

Compared with AUAAAAGCUCCAGAAUUACAGAAAUGUAGUUGUCGAGGAGGAGGUUUAUCGAAUUUUCGGCGGAUGCCUCCAAA [G9U C16U A33U], AUAAAAGCGUCAGAAUUACAGAAAUGUAGUUGUCGAGGAGGAGGUUUAUCGAAUUUUCGGCGGAUGCCUCCAAA [C10U C16U A33U] is higher in “self-cleavage kobs at 2500 uM GlcN6P” value: less than 1e-05 s⁻¹ for the first, 6.87e-05 ± 3.4e-05 s⁻¹ for the second.

Variants of: B1
Test: self-cleavage kobs at 10000 uM GlcN6P; higher = faster cleavage; RNA array
Settings: with glucosamine-6-phosphate
Procedure, shortened: as §1

Going from AUAAAAGCGGCAGAACUACAGAAAUGUAGUUGACGAGGAGGAGGUUUAUCGAAUUCUCGGCGGAUGCCUCCAAA [C10G U56C] to AUAAAAGCGCAUGAACUACAGAAAUGUAGUUGACGAGGAUGAGGUUUAUCGAAUUUUCGGCGGAUGCCUCCAAA [C11A A12U G40U], the “self-cleavage kobs at 10000 uM GlcN6P” value rises from less than 1e-05 s⁻¹ to 6.34e-05 ± 1.6e-05 s⁻¹.

With AUAAAAGCGUCAGAAUUACAGAAAUGUAGUUGUCGAGGAGGAGGUUUAUCGAAUUUUCGGCGGAUGCCUCCAAA [C10U C16U A33U] the “self-cleavage kobs at 10000 uM GlcN6P” value was 3.41e-05 ± 1.4e-05 s⁻¹.
